How the values were obtained:
[1] = tested on: high cardiovascular risk patients with hypercholesterolemia; experiment: ODYSSEY COMBO I: lipid efficacy of alirocumab vs placebo, add-on to maximally tolerated statin, 52 weeks; format: in vivo, human
Excerpt: Each of the COMBO studies was randomized, double-blinded, and placebo-controlled.
The primary efficacy endpoint for each study was the difference between treatment arms in the percent change in LDL-C from baseline to Week 24.
Apo, apolipoprotein; HDL-C, high-density lipoprotein cholesterol; ITT, intent-to-treat; LDL-C, low-density lipoprotein cholesterol; Lp(a), lipoprotein (a); TG, triglycerides.
COMBO I was a Phase 3, randomized, double-blind, placebo-controlled, parallel-group, multicenter, 52-week study.
After randomization, patients entered a double-blind treatment period of 52 weeks. […] Patients randomized to placebo received a 1 ml SC placebo injection from an identical auto-injector.
To maintain blinding, the patient and investigator were not informed of the Week 8 LDL-C levels (or any lipid values after randomization); continuation or up-titration of dose occurred in an automated and blinded manner.
Primary analyses of efficacy endpoints were conducted using an ITT approach (based on the ITT population defined above), including all lipid data, regardless of whether the patient was continuing therapy or not. This corresponds to ITT estimands, defined for primary and key secondary endpoints. In addition, analyses were also conducted using an on-treatment approach (based on the mITT population defined above), including lipid data collected during the efficacy treatment period. This corresponds to on-treatment estimands of key secondary endpoints.
With regards to the primary efficacy analysis (ITT approach), the percent change in calculated LDL-C from baseline to Week 24 was analyzed using a mixed-effect model with repeated measures (MMRM) approach. All post-baseline data available from Week 4 to Week 52 analysis windows were used and missing data were accounted for by the MMRM.

[2] = tested on: high cardiovascular risk patients with hypercholesterolemia; experiment: ODYSSEY COMBO I: safety (TEAEs, adjudicated CV events, laboratory PCSA, low LDL-C)
Procedure: Safety was assessed through adverse event (AE) reporting (including adjudicated cardiovascular events), laboratory analyses, and vital signs measurement. Since the LDL-C-lowering effects of PCSK9 inhibition on top of a statin are unknown, a number of AEs were defined as being of special interest and were monitored, including alanine aminotransferase abnormalities, allergic events, hemolytic anemia, pregnancy, overdose with study drug, neurologic events, ophthalmic events, and local injection site reactions. AEs were determined to be of special interest based on review of previous clinical trials, correspondence with regulatory authorities and the Data Monitoring Committee, the use of a monoclonal antibody in this study, and the route of drug administration.
AEs (including adjudicated cardiovascular events), laboratory parameters, and vital signs were reported descriptively, based on the safety population (all randomized patients who received at least 1 dose or partial dose of study treatment). The safety analysis focused on the treatment-emergent AE period defined as the time from the first double-blind dose to the last double-blind dose of the investigational product +70 days (10 weeks).
The safety population included all randomized patients who received at least one dose or part of a dose of the double-blind IMP.
Safety analyses were descriptive, performed on the safety population according to treatment actually received. For analysis of TEAE and PCSA, the safety analysis focused on the TEAE period defined as the time from the first dose of double-blind IMP up to 70 days after the last double-blind injection.

[3] = Week 24, 'Combo I: Overall Results' paragraph
[4] = alirocumab patients with LDL-C <25 mg/dL

Substance: Alirocumab: human anti-PCSK9 antibody; HCVR SEQ ID NO:1, LCVR SEQ ID NO:6; CDRs SEQ ID NOs 2/3/4/7/8/10
- Apo-B percent change, LS mean difference vs placebo ([1]; On-treatment, Week 24): placebo of −37.5%
- Calculated LDL-C percent change, LS mean difference (SE) vs placebo ([1]; On-treatment, Week 24): −49.9%
- Calculated LDL-C, LS mean (SE) percent change from baseline ([1]; On-treatment, Week 24): −50.7 (1.9) %
- Non-HDL-C percent change, LS mean difference vs placebo ([1]; On-treatment, Week 24): placebo of −40.4%
- Percent LDL-C reduction vs placebo within demographic and patient subgroups ([1]; Week 24, FIG. 5): seen at every level within each subgroup
- Absolute mean decrease from baseline in LDL-C [1, 3]: -90.8 mg/dL
- Patients who achieved LDL-C <100 mg/dL [1, 3]: 57%
- Change in triglyceride levels ([1]; baseline to Week 24): No significant change
- HDL-C percent change from baseline ([1]; baseline to Week 24): 3.5 (1.1) %
- Additional mean LDL-C reduction at week 24 compared with week 12 ([1]; patients with dose increase to 150 mg Q2W at week 12): 22.8%
- Ischemic events (within SOC Cardiac disorders) ([2]; TEAE period): 9 events
- SAEs reported ([2]; TEAE period): 12.6%
- SOC Cardiac disorders ([2]; TEAE period): 8.2%
- SOC Metabolism and nutrition disorder ([2]; TEAE period): 10.1%
- SOC eye disorders ([2]; TEAE period): 4.3%
- Arthralgia rate ([2]; alirocumab group as a whole): 3.9%
- Invertebral disc protusion rate ([2]; alirocumab group as a whole): 1.0%
- Myalgia rate ([2]; alirocumab group as a whole): 3.4%
- Osteoarthritis rate ([2]; alirocumab group as a whole): 3.9%
- Arthralgia rate [2, 4]: 5.1%
- Invertebral disc protusion rate [2, 4]: 5.1%
- Myalgia rate [2, 4]: 7.7%
- Osteoarthritis rate [2, 4]: 7.7%
- Patients with cardiovascular events that were positively adjudicated ([2]; as stated in text b249 (5 patients)): 2.4%
- PCSA: decrease of hemoglobin from baseline ≧20 g/L ([2]; in vivo): 6.3%
- PCSA: new cases of erythrocytes values ≧6 Tera/L ([2]; in vivo): 2.5%
- Patients with impaired glucose control at baseline classified as diabetic in the TEAE period ([2]; in vivo): 7.4%
- Patients with two consecutive calculated LDL-C values <25 mg/dL ([2]; in vivo): 19.5%
- Safety in patients with two consecutive calculated LDL-C <25 mg/dL ([2]; in vivo): No particular safety concern
- Asthma (general allergic reactions), cases ([2]; including 2 serious cases): 5 (2.4%) No. (%)
- Deaths during treatment period ([2]; myocardial infarction and pulmonary embolism): 1.0%
- Tolerability ([2]; overall results): generally well tolerated
- Time to the first calculated LDL-C value <15 mg/dL, mean (SD) ([2]; safety population): 12.51 (6.83) weeks
- Time to the first calculated LDL-C value <15 mg/dL, median ([2]; safety population): 13.57 weeks
- Time to the first calculated LDL-C value <25 mg/dL, mean (SD) ([2]; safety population): 11.48 (9.72) weeks
- Time to the first calculated LDL-C value <25 mg/dL, median ([2]; safety population): 8.00 weeks
- Any patients with treatment emergent cardiovascular events confirmed by adjudication ([2]; safety population, to week 52): −6 (2.9) No. (%) of patients
- Arthralgia (TEAE preferred term) ([2]; safety population, to week 52): 8 (3.9) No. (%) of patients
- Congestive heart failure requiring hospitalization, adjudicated ([2]; safety population, to week 52): 0 No. (%) of patients
- Coronary heart disease death (including undetermined cause), adjudicated ([2]; safety population, to week 52): 1 (0.5) No. (%) of patients
- Dizziness (TEAE preferred term) ([2]; safety population, to week 52): 11 (5.3) No. (%) of patients
- Fatal and non-fatal ischemic stroke (including stroke not otherwise specified), adjudicated ([2]; safety population, to week 52): −2 (1.0) No. (%) of patients
- Injection site reaction (TEAE preferred term) ([2]; safety population, to week 52): 11 (5.3) No. (%) of patients
- Ischemia driven coronary revascularization procedure, adjudicated ([2]; safety population, to week 52): 3 (1.4) No. (%) of patients
- Local injection site reactions (AE of special interest) ([2]; safety population, to week 52): 11 (5.3) No. (%) of patients
- Nasopharyngitis (TEAE preferred term) ([2]; safety population, to week 52): 15 (7.2) No. (%) of patients
- Neurocognitive disorders (AE of special interest) ([2]; safety population, to week 52): 0 (0) No. (%) of patients
- Neurological events (AE of special interest) ([2]; safety population, to week 52): 5 (2.4) No. (%) of patients
- Non-cardiac chest pain (TEAE preferred term) ([2]; safety population, to week 52): 2 (1.0) No. (%) of patients
- Non-fatal myocardial infarction, adjudicated ([2]; safety population, to week 52): 1 (0.5) No. (%) of patients
- Potential general allergic reaction events (AE of special interest) ([2]; safety population, to week 52): 18 (8.7) No. (%) of patients
- Sinusitis (TEAE preferred term) ([2]; safety population, to week 52): 11 (5.3) No. (%) of patients
- TEAE leading to death ([2]; safety population, to week 52): 2 (1.0) No. (%) of patients
- TEAEs ([2]; safety population, to week 52): 157 (75.8) No. (%) of patients
- TEAEs leading to discontinuation ([2]; safety population, to week 52): 13 (6.3) No. (%) of patients
- Treatment-emergent SAEs ([2]; safety population, to week 52): 26 (12.6) No. (%) of patients
- Local injection site reactions (AE of special interest) ([2]; safety population, to week 52, listed as alirocumab): 11 (5.3%) No. (%) of patients

From patent US20160137746A1, “METHODS FOR TREATING HIGH CARDIOVASCULAR RISK PATIENTS WITH HYPERCHOLESTEROLEMIA” (Sanofi Biotechnology, priority 2014, published 2016)
